Reference: patent US20100310509A1 (published 2010)

Tests used:
[1] = molecular target: T1, soluble human LIFR (leukemia inhibitory factor receptor) (human, UniProt P42702 45-833); assay: SPR (SensiQ), cytokine immobilised, soluble LIFR as analyte, 1:1 model
T1 construct: extracellular domain; Bought; also called soluble LIFR
T1 sequence (looked up): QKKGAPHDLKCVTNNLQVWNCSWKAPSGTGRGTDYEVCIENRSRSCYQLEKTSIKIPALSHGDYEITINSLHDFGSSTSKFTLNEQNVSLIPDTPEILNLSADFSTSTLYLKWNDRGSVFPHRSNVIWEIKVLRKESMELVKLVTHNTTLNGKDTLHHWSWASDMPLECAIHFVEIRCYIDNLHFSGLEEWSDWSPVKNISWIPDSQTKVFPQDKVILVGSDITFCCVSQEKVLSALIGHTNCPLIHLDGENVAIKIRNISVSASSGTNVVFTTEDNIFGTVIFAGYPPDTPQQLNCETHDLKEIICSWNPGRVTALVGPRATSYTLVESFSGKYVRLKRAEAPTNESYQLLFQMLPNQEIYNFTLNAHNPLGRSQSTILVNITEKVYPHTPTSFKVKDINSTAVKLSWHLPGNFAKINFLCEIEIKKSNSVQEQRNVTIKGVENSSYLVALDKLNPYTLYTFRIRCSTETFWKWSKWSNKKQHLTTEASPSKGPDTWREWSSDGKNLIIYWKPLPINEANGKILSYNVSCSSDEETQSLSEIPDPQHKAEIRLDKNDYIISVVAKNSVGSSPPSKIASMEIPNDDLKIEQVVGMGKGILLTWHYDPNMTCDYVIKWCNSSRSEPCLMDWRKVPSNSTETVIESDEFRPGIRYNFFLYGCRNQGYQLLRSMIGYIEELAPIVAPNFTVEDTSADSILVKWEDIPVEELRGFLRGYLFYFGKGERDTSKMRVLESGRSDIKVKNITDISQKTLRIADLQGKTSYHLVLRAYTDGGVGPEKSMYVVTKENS
Method: Surface Plasmon Resonance (SPR): Kinetic parameters of the interactions between receptor domains and the cytokines LIF, OSM-WT, OSM-M1 or OSM-M2 were analyzed by SPR using the SENSIQ® system (ICX Technologies, Oklahoma City, Okla.) as described by the manufacturer protocol. Briefly, a carboxyl sensor with two channels was installed in SENSIQ® and allowed to thermally equilibrate for about 15 minutes. The channels were initially cleaned with a 3 minute injection of 0.1 M HCl. An activation solution of 2 mM 1-Ethyl-3-[3-dimethylaminopropyl]carbodiimide hydrochloride (EDC) and 0.5 mM N-hydroxysulfo succinimide (NHS) was prepared in deionized water immediately before injection. Activation solution was injected over both channels for approximately 3 minutes followed by a 10 minute injection of 50 μg/mL cytokine (LIF, OSM-WT, OSM-M1 or OSM-M2) in 10 mM acetate buffer, pH 5.0, over channel 1. […] Unreacted NHS esters were capped with a 3 minute injection of 1 M ethanolamine, pH 8.0, over both channels. […] A concentration series of soluble LIFR (# 249-LR-050/CF, R&D Systems, Minneapolis, Minn.), soluble OSMR (# 4389-OR-50, R&D Systems, Minneapolis, Minn.) or soluble gp130 (# 228-GP-050/CF, R&D Systems, Minneapolis, Minn.) in running buffer (10 mM HEPES pH 7.4, 150 mM NaCl, 3.4 mM EDTA, 0.005% Tween-20) were injected over both channels at a flow rate of 25 μl/min. Following a dissociation period of 3 minutes, the surfaces were regenerated by injecting 10 mM NaOH for 30 seconds. Rate constants for association (kₐ) and dissociation (kd) rates were derived by global analysis of the response curves fit to a 1:1 kinetic model (Equations 1 and 2) using QDat software (BioLogic Software, Ltd. Knoxville Tenn. and Nomadics, Inc. Stillwater, Okla.) using 1:1 stoichiometry.
Reducing the size of the BC loop improves OSM's affinity towards LIFR and OSMR. […] To directly measure the binding kinetics of these ligand-receptor interactions, surface plasmon resonance (SPR) was used.

[2] = molecular target: T1, soluble human LIFR (leukemia inhibitory …); assay: ELISA, apparent KD (KD,App), cytokine coated, soluble LIFR titrated (direct)
Method: For direct interaction studies, cytokines (LIF, OSM-WT, OSM-M1 or OSM-M2) were immobilized on the 96 well ELISA plate by incubating the wells with 200 μl of 5 nM cytokine solution in PBS, pH 7.4 overnight at 4° C. The wells were then blocked with blocking buffer (4% BSA in PBS) for 1 hour at room temperature. After washing with 250 μl of washing buffer (0.05% Tween-20 in PBS) 3 times, the cytokines were treated with a series of concentrations of soluble human LIFR (Catalog #249-LR-050/CF, R&D Systems, Minneapolis, Minn.) or OSMR (Catalog #4389-OR-050, R&D Systems, Minneapolis, Minn.) in 150 μl of blocking buffer for 2 hours. The wells were then incubated with 150 μl of polyclonal anti-hLIFR (Catalog #AF249-NA, R&D Systems, Minneapolis, Minn.) or anti-hOSMR (Catalog #AF662, R&D Systems, Minneapolis, Minn.) in blocking buffer for 1 hour followed by incubation with 150 μl of HRP conjugated […] antibody (GE Healthcare, Uppsala, Sweden) in blocking buffer for 30 minutes. The wells were then washed 3 times with washing buffer and treated with 100 μl of chromogenic Slow-TMB® HRP substrate (Catalog #34024, Thermo Scientific Fisher, Rockford, Ill.) for 15 minutes. The reaction was then stopped by adding 100 μl of 2M H₂SO₄ and the absorbance of each well at 450 nm was read immediately using a UV detector (iMARK® Microplate Reader, Biorad, Hercules, Calif.). For interactions of higher order, soluble human gp130 (Catalog #671-GP-100, R&D Systems, Minneapolis, Minn.) was immobilized on 96 well ELISA microplates by incubating the wells with 200 μl of 1 nM gp130 solution (in PBS, pH 7.4) overnight at 4° C. The wells were then blocked with 150 μl of blocking buffer (4% BSA in PBS) for 1 hour at room temperature. After washing with 250 μl of washing buffer 3 times, gp130 was treated with saturating amounts of the cytokines (500 nM hLIF, 200 nM OSM-WT, 200 nM OSM-M1 or 200 nM OSM-M2) in a volume of 150 μl of blocking buffer for a period of 2 hours. The cytokine solution was discarded and a series of concentrations of soluble human LIFR or OSMR in a final volume of 150 μl blocking buffer were then added to the wells and the incubation was continued for another 1 hour. After washing with 250 μl of washing buffer 3 times, the wells were then incubated with 150 μl of polyclonal anti-hLIFR or anti-hOSMR in blocking buffer for 1 hour.

Row | Binder | Kd [1] [nM] | koff [1] [s⁻¹] | kon [1] [M⁻¹ s⁻¹] | Kd [2] [nM]
1 | human leukemia inhibitory factor (LIF) (ligand, Purified recombinant protein; also called hLIF) not shown | 3.1 | 0.0023 | 740000 | 8.58
2 | OSM-WT ('AGA' modified human Oncostatin M, referred to as wild-type OSM) (ligand, also called hOSM with AGA modification; not shown: N-terminal FLAG tag left after thrombin removal of GST) AAIGSCSKEYRVLLGQLQKQTDLMQDTSRLLDPYIRIQGLDVPKLREHCRERPGAFPSEETLRGLGRRGFLQTLNATLGCVLHRLADLEQRLPKAQDLERSGLNIEDLEKLQMARPNILGLRNNIYCMAQLLDNSDTAEPTKAGAGASQPPTPTPASDAFQRKLEGCRFLHGYHRFMHSVGRVFSKWGESPN | 43.8 | 0.004 | 91000 | 60
3 | OSM-M1 (OSM with BC loop truncated from 12 to 7 amino acids) (ligand, Made from the 'AGA' modified OSM template; lacks the thrombin site; not shown: N-terminal FLAG tag left after thrombin removal of GST) AAIGSCSKEYRVLLGQLQKQTDLMQDTSRLLDPYIRIQGLDVPKLREHCRERPGAFPSEETLRGLGRRGFLQTLNATLGCVLHRLADLEQRLGAPSGLNIEDLEKLQMARPNILGLRNNIYCMAQLLDNSDTAEPTKAGAGASQPPTPTPASDAFQRKLEGCRFLHGYHRFMHSVGRVFSKWGESPN | 7.62 | 0.00252 | 331000 | 10.1
4 | OSM-M2 (OSM with BC loop truncated from 12 to 4 amino acids) (ligand, Made from the 'AGA' modified OSM template; lacks the thrombin site; not shown: N-terminal FLAG tag left after thrombin removal of GST) AAIGSCSKEYRVLLGQLQKQTDLMQDTSRLLDPYIRIQGLDVPKLREHCRERPGAFPSEETLRGLGRRGFLQTLNATLGCVLHRLADLEQRLGGGNIEDLEKLQMARPNILGLRNNIYCMAQLLDNSDTAEPTKAGAGASQPPTPTPASDAFQRKLEGCRFLHGYHRFMHSVGRVFSKWGESPN | 2.74 | 0.00356 | 1.3e+06 | 8.75
